Results from US8357523B2, “Beta-glucosidase variant enzymes and related polynucleotides” (Codexis, Inc., priority 2009, dated 2013).

What was measured:
[1] = Saccharification of microcrystalline cellulose by Trichoderma reesei whole cellulase supplemented with β-glucosidase; assay type: biochemical; conditions: 1 g/L TRWC alone or 25% of TRWC substituted with the β-glucosidase; 200 g/L Avicel, 100 g/L xylose, pH5.5, 55° C., 48 hours
Excerpt: FIG. 12 illustrates the impact of supplementing a commercially available Trichoderma reesei whole cellulose (“TRWC”) mixture with a CelA variant of the present invention. Compositions containing TRWC were supplemented with β-glucosdiases CelA Variant No. 264 (“Cel var1”), CelA Variant No. 366 (“Cel var2”), and a commercially available Aspergillus niger β-glucosidase (“ANBG”) in a ratio of 3:1 TRWC to β-glucosidase. The effectiveness of each composition at hydrolyzing microcrystalline cellulose was evaluated as described in Example 15. A plot of glucose and cellobiose concentration (g/L) vs. cellulase composition is depicted. The control composition was TRWC with no added β-glucosidase.
The impact of adding a CelA variant of the present invention to commercially available cellulose mixtures and microcrystalline cellulose, Avicel™, was evaluated. In the test reactions, 1 g/L Trichoderma reesei whole cellulose (“TRWC”, Sigma catalog #C85456-10KU (ATCC 26921)) was used to convert 200 g/L of the microcrystalline cellulose Avicel™ (200 mM Sodium acetate; 100 g/L xylose, pH5.5 and 55° C.). The amount of glucose was measured after 48 hours of reaction. As a comparison, 25% of the TRWC was replaced with a β-glucosidase: Variant No. 264 (“Cel var1”), Variant No. 366 (“Cel var2”), or with the commercially available cellobiase, Aspergillus niger beta-glucosidase (“ANBG”, Sigma catalog #49291-1G). […]

[2] = Enzyme stability: residual activity on pNPG after pre-incubation at high temperature and low pH; assay type: biochemical; conditions: residual activity on pNPG at pH 7, 30° C.

B1: Variant No. 264 (protein)
chain: SAAIAQEGAAPAAMLHPEKWPRPATQRLIDPAVEKRVDALLKQLSVEEKVGQVIQGDIGTITPEDLRKYPLGSILAGGDSGPNGDDRAPPKEWLDLADAFYRVSLEKRPGHTPIPVLFGIDAVHGHGNIGSATIFPHNIALGMTRDPELLRRIGEVTAEEMAATGIDWTFAPALSVVRDDRWGRTYEGFSEDPEIVASYSAAIVEGVQGKYGSKDFMAPGRAVACAKHFLADGGTDQGRDQGDARISEDELIRIHNAGYPPAIDAGVLTVMASFSSWQGIKHHGHKQLLTDVLKGQMGFNGFIVGDWNAHDQVPGCTKFNCPTSLIAGLDMYMAADSWKQLYENTLAQVKDGTIPMARLDDAVRRILRVKVLAGLFEKPAPKDRPGLPGLETLGSPEHRAVGREAVRKSLVLLKNDKGTLPLSPKARVLVAGDGADNIGKQSGGWTISWQGTGNRNDEFPGATSILGGIRDAVADAGGSVEFDVAGQYKTKPDVAIVVFGEEPYAEFRGDVETLEYQPDQKQDLTLLKKLKDQGIPVVAVFLSGRPMWVNPELNASDAFVAAWLPGTEGGGVADVLFTDKAGKVQHDFAGKLSYSWPRTAAQTTVNRGDADYNPLFAYGYGLTYKDKSKVGTLPEESGVPAEARQN
With B1 the “cellobiose and glucose combined yielded in saccharification reaction” value [1] was “comparable results”, the “% residual activity after 10 mins @ pH 5.5, 55° C.” value ([2]; pre-incubation 10 mins at pH 5.5, 55° C., 1 hr) was 95% and the “% residual activity after 1 hour @ pH 5.5, 55° C.” value ([2]; pre-incubation 1 hour at pH 5.5, 55° C.) was 78%. The “% residual activity after 6 hours @ pH 5.5, 55° C.” value ([2]; pre-incubation 6 hours at pH 5.5, 55° C., 1 hr) was 11%.
